According to US20230159619A1, “COMPOSITIONS AND METHODS FOR REGULATING IMMUNE SYSTEM ACTIVITY” (Olema Pharmaceuticals, Inc., priority 2017, published 2023):
Values belong to the molecule of their own block, whether it stands above or below them.

Columns and labels:
Type in all cases: cell-based, human
NFAT-Luciferase reporter [1] = experiment: NFAT-Luciferase reporter assay with ZAP70dn(1-278) constructs (Example 10); settings: Jurkat E6.1 cells, αTCR+αCD28, with or without endoxifen, compared to empty vector controls
Excerpt: (§1) To provide a means for assessing immune pathway activity, a construct containing a reporter gene, such as firefly luciferase (Luc), under the control of an NFAT response element can be used, as described, e.g., in Example 3. In the present Example, Jurkat E6.1 cells were transiently transfected with an NFAT-Luciferase reporter construct as well as one of (a) empty vector; (b) an expression construct encoding ZAP70dn(1-278); (c) an expression construct encoding ZAP70dn(1-278)-ER(T2); and (d) an expression construct encoding ZAP70dn(1-278)-ER(T12). Transient transfections were performed using LTX and PLUS transfection reagent (ThermoFisher Scientific) according to manufacturer's protocols.
A first set of transfected cells was treated in the absence or presence of 1:30 dilution of Immunocult CD3/CD28/CD2 tetrameric antibody mixture (StemCell Technologies, Canada), which stimulated T-cell activity. […] Luciferase activity (luminescence) was measured and reported as a percentage induction of NFAT-Luciferase.
A further set of transfected cells was treated in the absence or presence of 0.25 μg/ml C305 (αTCR, Sigma-Aldrich) plus 2 μg/ml αCD28.2 (Biolegend), which stimulated T-cell activity. […] Luciferase activity (luminescence) was measured and reported in relative light units (RLU).

NFAT-Luciferase reporter [2] = experiment: NFAT-Luciferase reporter assay with LCK(1-266) constructs (Example 11); settings: Jurkat E6.1 cells, α-CD3 and α-CD28, with or without endoxifen, compared to empty vector controls
Excerpt: as §1, with “assessing T cell” for “assessing immune pathway”, “reporter construct,” for “reporter construct”, “empty vector control;” for “empty vector;”, “encoding LCK(1-266); and” for “encoding ZAP70dn(1-278);”, “encoding LCK(1-266)-ER(T12).” for “encoding ZAP70dn(1-278)-ER(T2); and (d) an expression construct encoding ZAP70dn(1-278)-ER(T12).”
Transfected cells were treated in the absence or presence of 1:80 dilution of Immunocult CD3/CD28 tetrameric antibody mixture (StemCell Technologies, Canada), which stimulated T-cell activity. Stimulated cells were then further treated with RPMI 1640 media plus 4.8% FBS stripped with charcoal dextran (ThermoFisher Scientific), either without Z-endoxifen or with 100 nM Z-endoxifen (Axon-Medchem). Luciferase activity (luminescence) was measured and reported as percent induction of NFAT-Luciferase.

NFAT-Luciferase reporter [3] = experiment: NFAT-Luciferase reporter assay, endoxifen dose response (Example 4); settings: Jurkat E6.1 cells, anti-TCR antibody clone 305, endoxifen 0.05-1000 nM, 6 hours
Excerpt: To examine whether the concentration of endoxifen affected the level of inhibition of T cell activity by an endoxifen-responsive dominant negative Zap-70 polypeptide, Jurkat E6.1 cells (purchased from ATCC (Manassas, Va.)) were transiently transfected with an NFAT-Luciferase reporter construct and a test construct of (1) a vector encoding a dominant negative Zap70 moiety, as described in Example 2 (“Zap70dnm”), or (2) a vector encoding an endoxifen-responsive dominant negative Zap70 polypeptide, including an ER(T2) domain operatively linked to a dominant negative Zap70 moiety, as described in Example 1 (“Zap70dnm-ER(T2)”). The transient transfections were performed using LTX and PLUS transfection reagent (ThermoFisher Scientific) according to manufacturer's protocols.
Transfected cells were treated with an anti-TCR antibody, clone 305, which stimulated T cell activity. […]
(§2) After 6 hours, luciferase activity was assayed with Bright-Glo substrate according to manufacturer's protocols (Promega). Luminescence was detected on the Varioskan Lux (ThermoFisher Scientific) plate reader at a 1 second interval. The luminescence was measured and reported in relative light units (RLU). […]

NFAT-Luciferase reporter [4] = experiment: NFAT-Luciferase reporter assay in transiently transfected Jurkat E6.1 cells (Example 3)
Excerpt: One outcome of T cell activation is the expression of Nuclear Factor of Activated T cells (NFAT) transcription factors. Accordingly, a construct containing a reporter gene, such as firefly luciferase (Luc), under the control of an NFAT response element can be used to assess T cell activity. Such a construct can either be transiently transfected into cells (e.g., Jurkat cells, which are an immortalized line of human T cells) or stably integrated into a cell line (e.g., a derivative Jurkat cell line). These reporter genes can be used to measure activation, or inhibition, of T cell activation pathways.
To examine whether an endoxifen-responsive dominant negative Zap-70 polypeptide could inhibit T cell activity resulting in NFAT-luciferase expression, Jurkat E6.1 cells (purchased from ATCC (Manassas, Va.)) were transiently transfected with an NFAT-Luciferase reporter construct and a test construct of (1) a control vector (“vector”), (2) a vector encoding a dominant negative Zap70 moiety, as described in Example 2 (“Zap70dnm”), or (3) a vector encoding an endoxifen-responsive dominant negative Zap70 polypeptide, including an ER(T2) domain operatively linked to a dominant negative Zap70 moiety, as described in Example 1 (“Zap70dnm-ER(T2)”). The transient transfections were performed using LTX and PLUS transfection reagent (ThermoFisher Scientific) according to manufacturer's protocols.
Transfected cells were treated in the absence or presence of 1:30 Immunocult™ CD3/CD28/CD2 tetrameric antibody mixture (StemCell Technologies, Canada) (“α-TCR”), which stimulates T cell activity. […]
as §2, with “19” for “6”

B1: ZAP70dn(1-278): dominant negative signaling moiety, ZAP70 amino acids 1-278, lacks a functional kinase domain, SEQ ID NO: 2 (protein)
chain: MPDPAAHLPFFYGSISRAEAEEHLKLAGMADGLFLLRQCLRSLGGYVLSLVHDVRFHHFPIERQLNGTYAIAGGKAHCGPAELCEFYSRDPDGLPCNLRKPCNRPSGLEPQPGVFDCLRDAMVRDYVRQTWKLEGEALEQAIISQAPQVEKLIATTAHERMPWYHSSLTREEAERKLYSGAQTDGKFLLRPRKEQGTYALSLIYGKTVYHYLISQDKAGKYCIPEGTKFDTLWQLVEYLKLKADGLIYCLKEACPNSSASNASGAAAPTLPAHPSTLT
luciferase reporter expression (RLU) (NFAT-Luciferase reporter [1]): substantially reduced expression of luciferase reporter

B2: LCK(1-266): dominant negative LCK signaling moiety, SEQ ID NO: 17 (protein)
chain: MGCGCSSHPEDDWMENIDVCENCHYPIVPLDGKGTLLIRNGSEVRDPLVTYEGSNPPASPLQDNLVIALHSYEPSHDGDLGFEKGEQLRILEQSGEWWKAQSLTTGQEGFIPFNFVAKANSLEPEPWFFKNLSRKDAERQLLAPGNTHGSFLIRESESTAGSFSLSVRDFDQNQGEVVKHYKIRNLDNGGFYISPRITFPGLHELVRHYTNASDGLCTRLSRPCQTQKPQKPWWEDEWEVPRETLKLVERLGAGQFGEVWMGYYNG
luciferase reporter expression (percent induction of NFAT-Luciferase) (NFAT-Luciferase reporter [2]): substantially reduced expression of luciferase reporter

luciferase expression from the NFAT-luciferase construct (NFAT-Luciferase reporter [3]): low
B3: Zap70dnm: polypeptide including a nuclear export signal and a dominant negative Zap-70 moiety, SEQ ID NO: 10 (protein)
chain: MNELALKLAGLDINKTMPDPAAHLPFFYGSISRAEAEEHLKLAGMADGLFLLRQCLRSLGGYVLSLVHDVRFHHFPIERQLNGTYAIAGGKAHCGPAELCEFYSRDPDGLPCNLRKPCNRPSGLEPQPGVFDCLRDAMVRDYVRQTWKLEGEALEQAIISQAPQVEKLIATTAHERMPWYHSSLTREEAERKLYSGAQTDGKFLLRPRKEQGTYALSLIYGKTVYHYLISQDKAGKYCIPEGTKFDTLWQLVEYLKLKADGLIYCLKEACPNSSASNASGAAAPTLPAHPSTLT
luciferase expression from the NFAT-luciferase construct (NFAT-Luciferase reporter [4]; vehicle (not treated with α-TCR or endoxifen)): no luciferase expression was detected
luciferase expression from the NFAT-luciferase construct (NFAT-Luciferase reporter [4]; α-TCR plus 100 nM endoxifen, 19 hours): low and nearly equivalent to the luciferase expression observed from sample 5
luciferase expression from the NFAT-luciferase construct (NFAT-Luciferase reporter [4]; α-TCR, no endoxifen, 19 hours): low
